Experimental data reported in paper PMC2975540 (Science (New York, N.Y.), 2009).
Numbering of substitutions follows the chain as printed.

Experiments:
[1] = target: T1, Methanocaldococcus jannaschii Nop5 (Methanocaldococcus jannaschii, UniProt Q58105 1-414); experiment: quantitative amino acid analysis
T1 sequence (looked up): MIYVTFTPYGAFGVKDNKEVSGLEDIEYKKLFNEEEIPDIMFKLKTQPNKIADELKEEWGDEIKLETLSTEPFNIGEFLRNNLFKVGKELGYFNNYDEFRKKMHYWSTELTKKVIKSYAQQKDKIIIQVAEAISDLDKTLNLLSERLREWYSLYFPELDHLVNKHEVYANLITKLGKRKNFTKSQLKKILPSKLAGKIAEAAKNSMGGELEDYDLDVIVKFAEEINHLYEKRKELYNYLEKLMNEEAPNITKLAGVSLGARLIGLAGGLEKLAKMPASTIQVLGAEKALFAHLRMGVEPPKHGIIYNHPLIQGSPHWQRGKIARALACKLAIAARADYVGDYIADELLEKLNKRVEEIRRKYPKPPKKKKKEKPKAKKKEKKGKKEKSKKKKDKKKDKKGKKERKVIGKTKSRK

Nop5mut2 (L143K, V217E) = target: T2, Nop5mut2 (L143K, V217E) (Methanocaldococcus jannaschii, UniProt Q58105 1-414, L143K | V217E); experiment: co-sedimentation
T2 sequence (looked up): T1 sequence (looked up) with L143K, V217E

[2] = target: T3, Nop5mut4 (D135A, L143K, V217E, E224A) (Methanocaldococcus jannaschii, UniProt Q58105 1-414, D135A | L143K | V217E | E224A); experiment: co-sedimentation
T3 sequence (looked up): T1 sequence (looked up) with D135A, L143K, V217E, E224A

B1: Methanocaldococcus jannaschii fibrillarin (enzyme, UniProt Q58108 1-230, looked up)
chain: MEDIKIKEIFENIYEVDLGDGLKRIATKSIVKGKKVYDEKIIKIGDEEYRIWNPNKSKLAAAIIKGLKVMPIKRDSKILYLGASAGTTPSHVADIADKGIVYAIEYAPRIMRELLDACAERENIIPILGDANKPQEYANIVEKVDVIYEDVAQPNQAEILIKNAKWFLKKGGYGMIAIKARSIDVTKDPKEIFKEQKEILEAGGFKIVDEVDIEPFEKDHVMFVGIWEGK
[1]
  stoichiometry N: 1
Nop5mut2 (L143K, V217E)
  binding result: binds
[2]
  binding result: binds
